Experimental findings from patent US20030143191A1 (published 2003) are described below.

This assay deals with T1, CCR5 (G-protein coupled chemokine receptor) on human PBMC (human, UniProt P51681 1-352).
T1 construct: whole, on cells; The cells were primary PBMC, not transfectants, so the receptor is assigned through the CCR5 agonist MIP-1β; also called G-protein Chemokine Receptor CCR5
The assay can be described thus: 125I-MIP-1β competition binding on human PBMC cultured 2 days; labelled competitor 0.17 nM 125I-MIP-1β; cells preincubated with supernatant 45 min at 37 °C, then hot ligand 60 min at RT; cell pellet collected by density centrifugation through oil; readout cpm. The procedure:
Human PBMC were purified from whole blood and cultured for 2 days. […] After 60 minutes, cell bound ¹²⁵I-MIP-1 was separated from unbound ¹²⁵I-MIP-1, and the radioactivity determined.
PBMCs were grown, purified, and suspended in calcium buffer as described above in Example 49.

T1 sequence (P51681 whole entry): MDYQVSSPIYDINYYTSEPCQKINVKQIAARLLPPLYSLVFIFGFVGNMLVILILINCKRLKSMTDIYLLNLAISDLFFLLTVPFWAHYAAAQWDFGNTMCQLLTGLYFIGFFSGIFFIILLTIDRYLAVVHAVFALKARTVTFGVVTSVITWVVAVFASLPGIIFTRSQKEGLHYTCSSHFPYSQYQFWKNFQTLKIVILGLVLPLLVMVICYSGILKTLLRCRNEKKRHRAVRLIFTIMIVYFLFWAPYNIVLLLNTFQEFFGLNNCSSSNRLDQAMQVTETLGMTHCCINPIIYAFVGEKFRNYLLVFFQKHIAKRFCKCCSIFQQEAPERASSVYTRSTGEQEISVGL

B1: Ckb1 construct 1832 (pC4:MPIFsp.CKB1(G28-N93)), secreted product ck-beta-1 G28-N93 (ligand)
chain: GPYHPSECCFTYTTYKIPRQRIMDYYETNSQCSKPGIVFITKRGHSVCTNPSDKWVQDYIKDMKEN
notes: Non-fusion Ckb1, expressed in mammalian cells from pC4
For B1, the binding result is listed as “binds”.
